Data as given in the supplement of paper PMC10724198.
± gives the standard deviation of the averaged measurements.

Tests used:
[1] = system: Saccharomyces cerevisiae; test: protein stability index of tFT-peptide fusion (C-terminal peptide) (PSI (0-1 scale)); higher = more stable (slower turnover)
Procedure: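 MPS profiling in S. cerevisiae of the tFT-X12 degron library: putative degron peptides plus stable controls, 12 aa, fused to the C-terminus of a sfGFP-mCherry timer. Cells are FACS-sorted into 8 mCherry/sfGFP bins and deep-sequenced. PSI runs from 0 (unstable) to 1 (stable). Backgrounds are wild type, das1Δ and doa10Δ at 30 °C, and wild type, das1Δ, cdc34-1 and cdc53-1 at 37 °C; 2-3 technical replicates each.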

[2] = system: Saccharomyces cerevisiae; test: as above; conditions: genetic background: wild type; temperature: 30 C
[3] = genetic background: cdc34-1, temperature: 37 C
[4] = genetic background: cdc53-1, temperature: 37 C
[5] = genetic background: das1 deletion, temperature: 30 C
[6] = genetic background: das1 deletion, temperature: 37 C
[7] = genetic background: doa10 deletion, temperature: 30 C
[8] = genetic background: wild type, temperature: 30 C
[9] = genetic background: wild type, temperature: 37 C
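Note: PSI is a weighted mean of sequencing reads over stability bins, variants kept only with over 10 reads, mCherry proximal and sfGFP distal, peptide attached via GGGS linker.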

Row | Sequence | protein stability index [1, 3] | protein stability index [1, 4] | protein stability index [1, 5] | protein stability index [1, 6] | protein stability index [1, 7] | protein stability index [1, 8] | protein stability index [1, 9] | protein stability index [2]
1 | IWYGLFWLRFWV | 0.513 ± 0.044 | 0.572 ± 0.018 | 0.497 ± 0.018 | 0.586 ± 0.015 | 0.444 ± 0.018 | 0.423 ± 0.023 | 0.5368 ± 0.0047 | 0.51 ± 0.055
2 | GPPPAPSPTPSP | 0.661 ± 0.035 | 0.7253 ± 0.0049 | 0.676 ± 0.021 | 0.7217 ± 0.0055 | 0.685 ± 0.014 | 0.687 ± 0.015 | 0.699 ± 0.02 | 0.732 ± 0.023
3 | VCVVVLVGVVFL | 0.188 ± 0.031 | 0.3491 ± 0.0012 | 0.237 ± 0.02 | 0.3828 ± 0.0025 | 0.198 ± 0.0055 | 0.24 ± 0.031 | 0.314 ± 0.0088 | 0.3 ± 0.036
4 | MALAVRVVPCGA | 0.373 ± 0.012 | 0.385 ± 0.011 | 0.291 ± 0.028 | 0.4637 ± 0.0008 | 0.264 ± 0.011 | 0.287 ± 0.037 | 0.421 ± 0.0078 | 0.397 ± 0.017
5 | YCFLSWVLMCCF | 0.457 ± 0.019 | 0.4613 ± 0.0037 | 0.399 ± 0.018 | 0.438 ± 0.011 | 0.421 ± 0.025 | 0.386 ± 0.0065 | 0.42 ± 0.0059 | 0.406 ± 0.022
6 | SGLPLVILFLCL | 0.529 ± 0.0086 | 0.635 ± 0.04 | 0.435 ± 0.028 | 0.625 ± 0.022 | 0.441 ± 0.026 | 0.436 ± 0.019 | 0.576 ± 0.038 | 0.476 ± 0.0088
7 | ALEFLLLVCRRL | 0.589 ± 0.026 | 0.621 ± 0.024 | 0.457 ± 0.011 | 0.6018 ± 0.0059 | 0.31 ± 0.026 | 0.334 ± 0.028 | 0.517 ± 0.013 | 0.418 ± 0.012
8 | SVLAIWLTVTLK | 0.0666 ± 0.029 | 0.0696 ± 0.029 | 0.146 ± 0.016 | 0.197 ± 0.0027 | 0.0915 ± 0.023 | 0.0938 ± 0.034 | 0.139 ± 0.0076 | 0.145 ± 0.0018
9 | LVVWASLVRVEG | 0.271 ± 0.033 | 0.3235 ± 0.003 | 0.252 ± 0.037 | 0.4191 ± 0.0033 | 0.2034 ± 0.00022 | 0.255 ± 0.02 | 0.389 ± 0.0079 | 0.33 ± 0.032
10 | GWCLGFWCLLVC | 0.0399 ± 0.0089 | 0.0444 ± 0.0049 | 0.123 ± 0.02 | 0.156 ± 0.019 | 0.0958 ± 0.005 | 0.0537 ± 0.018 | 0.068 ± 0.014 | 0.118 ± 0.093
11 | GRSVGVTMFKNG | 0.614 ± 0.059 | 0.7332 ± 0.0067 | 0.627 ± 0.017 | 0.73 ± 0.018 | 0.172 ± 0.019 | 0.206 ± 0.014 | 0.479 ± 0.016 | 0.3421 ± 0.0014
12 | SRFFSCCVFPSF | 0.704 ± 0.02 | 0.7941 ± 0.0034 | 0.67 ± 0.037 | 0.781 ± 0.016 | 0.6764 ± 0.0041 | 0.654 ± 0.0089 | 0.737 ± 0.023 | 0.766 ± 0.017
13 | KRNLLYNIIVWI | 0.404 ± 0.024 | 0.476 ± 0.051 | 0.357 ± 0.025 | 0.524 ± 0.021 | 0.171 ± 0.0049 | 0.179 ± 0.016 | 0.288 ± 0.0061 | 0.299 ± 0.046
14 | FLSVPHLLFLFI | 0.608 ± 0.0063 | 0.634 ± 0.016 | 0.494 ± 0.021 | 0.619 ± 0.0054 | 0.49 ± 0.016 | 0.4689 ± 0.0032 | 0.6023 ± 0.0038 | 0.511 ± 0.017
15 | ALRLVAFFWVPG | 0.482 ± 0.063 | 0.536 ± 0.038 | 0.427 ± 0.025 | 0.5392 ± 0.0037 | 0.415 ± 0.035 | 0.4099 ± 0.0011 | 0.5126 ± 0.0048 | 0.422 ± 0.0081
16 | LAINVRRELLFF | 0.613 ± 0.0093 | 0.723 ± 0.021 | 0.643 ± 0.029 | 0.7665 ± 0.007 | 0.134 ± 0.001 | 0.148 ± 0.032 | 0.235 ± 0.007 | 0.235 ± 0.043
